Measured values published in paper PMC11243334, “Synthesis and Evaluation of the First ^68Ga-Labeled C-Terminal Hydroxamate-Derived Gastrin-Releasing Peptide Receptor-Targeted Tracers for Cancer Imaging with Positron Emission Tomography” (Molecules, 2024).
Read-outs that look alike come from different tables or passages of the source.

Assays:
physchem = details: n-octanol/DPBS, pH 7.4
Description: LogD7.4 values of [^68Ga]Ga-LW02075, [^68Ga]Ga-LW02050, and [^68Ga]Ga-SB3 were measured via the shake flask method. An aliquot of the ^68Ga-labeled tracer (~1.85 MBq) was added to a 15 mL falcon tube containing 3 mL of n-octanol and 3 mL of DPBS (pH 7.4) followed by 1 min of vortex (n = 3). After that, the mixture was centrifuged at 5000 rpm for 10 min, and samples of the n-octanol (1 mL) and buffer (1 mL) layers were collected and counted on a Perkin Elmer (Waltham, MA, USA) Wizard2 2480 automatic gamma counter. The LogD7.4 values of [^68Ga]Ga-LW02075, [^68Ga]Ga-LW02050, and [^68Ga]Ga-SB3 were calculated following the equation: LogD7.4 = log10[(counts in the n-octanol phase)/(counts in the buffer phase)].

[1] = Ex vivo biodistribution in PC-3 tumor-bearing mice; details: male, mouse, iv, total radioactivity, mean ± SD, n = 4; for tissue uptake at 1 h: NOD.Cg-Rag1^tm1Mom Il2rg^tm1Wjl/SzJ (NRG); for tissue to tissue ratio at 1 h: NOD.Cg-Rag1tm1Mom Il2rgtm1Wjl/SzJ (NRG)
Description: (§1) Biodistribution studies were conducted for ^68Ga-labeled SB3, LW02075 and LW02050 in PC-3 tumor-bearing mice (n = 4).
(§2) Imaging and biodistribution studies were performed on male NOD.Cg-Rag1^tm1Mom Il2rg^tm1Wjl/SzJ (NRG) mice following previously published procedures. The experiments were conducted following the guidelines established by the Canadian Council on Animal Care and approved by Animal Ethics Committee of the University of British Columbia. The mice were sedated (2.5% isoflurane in oxygen) and injected with 5 × 10^6 PC-3 cells (100 µL; 1:1 PBS/Matrigel) subcutaneously behind the left shoulder. The tumor-bearing mice were used for PET/CT imaging and biodistribution studies when the tumor grew to 5–8 mm in diameter.
(§3) For biodistribution studies, the mice were injected with the radiotracer (~2–4 MBq), as described above. Blocking of [^68Ga]Ga-LW02075 and [^68Ga]Ga-LW02050 was conducted by co-injection with 100 μg nonradioactive Ga-LW02075 and Ga-LW02050, respectively, through a lateral caudal tail vein under anaesthesia. At 1 h post injection, the mice were sedated and euthanized by CO2 inhalation. Blood was collected via cardiac puncture, and organs/tissues of interest were collected, weighed, and counted on a Perkin Elmer (Waltham, MA, USA) Wizard2 2480 automatic gamma counter.

PC-3 tumor-bearing mice = experiment: Ex vivo biodistribution in PC-3 tumor-bearing mice; details: 1 h post injection, 100 μg nonradioactive standard co-injected
Description: as §1, §2, §3

PC-3 tumor xenografts = experiment: PET/CT imaging in mice bearing PC-3 tumor xenografts; type: in vivo; details: 1 h post injection
Description: as §2
PET/CT imaging experiments were performed on a Siemens (Knoxville, TN, USA) Inveon micro PET/CT scanner. Each tumor-bearing mouse was injected with ~3–6 MBq of ^68Ga-labeled tracer through a lateral caudal tail vein under anaesthesia. At around 50 min post injection, a 10 min CT scan was obtained first for localization and attenuation correction after segmentation for reconstructing the PET image, followed by a 10 min static PET scan.

Question: Which results are given for `CC(C)C[C@H](NC(=O)[C@H](Cc1c[nH]cn1)NC(=O)CNC(=O)[C@@H](NC(=O)[C@H](C)NC(=O)[C@H](Cc1c[nH]c2ccccc12)NC(=O)[C@H](CCC(N)=O)NC(=O)[C@@H](Cc1ccccc1)NC(=O)CN1CCC(NC(=O)CN2CCN(CC(=O)O)CCN(CC(=O)O)CCN(CC(=O)O)CC2)CC1)C(C)C)C(=O)NO` [[^68Ga]Ga-LW02050, [^68Ga]Ga-DOTA-Pip-D-Phe-Gln-Trp-Ala-Val-Gly-His-Leu-NHOH, metal not drawn]?
Answer: logD (physchem): -2.3 ± 0.14; tissue uptake at 1 h ([1]; PC-3 tumor, 1 h blocked: co-injected with 100 µg nonradioactive Ga-complexed standard, read-out: PC-3 tumor uptake, blocked): 0.42 ± 0.08 %ID/g; tissue uptake at 1 h ([1]; PC-3 tumor, 1 h post injection, read-out: PC-3 tumor uptake): 5.38 ± 1 %ID/g; tissue uptake at 1 h ([1]; adrenal glands, 1 h blocked: co-injected with 100 µg nonradioactive Ga-complexed standard, read-out: Adrenal glands uptake, blocked): 0.05 ± 0.05 %ID/g; tissue uptake at 1 h ([1]; adrenal glands, 1 h post injection, read-out: Adrenal glands uptake): 0.43 ± 0.15 %ID/g; tissue uptake at 1 h ([1]; blood, 1 h blocked: co-injected with 100 µg nonradioactive Ga-complexed standard, read-out: Blood uptake, blocked): 0.34 ± 0.06 %ID/g; tissue uptake at 1 h ([1]; blood, 1 h post injection, read-out: Blood uptake): 0.57 ± 0.11 %ID/g; tissue uptake at 1 h ([1]; bone, 1 h blocked: co-injected with 100 µg nonradioactive Ga-complexed standard, read-out: Bone uptake, blocked): 0.03 ± 0.03 %ID/g; tissue uptake at 1 h ([1]; bone, 1 h post injection, read-out: Bone uptake): 0.14 ± 0.06 %ID/g; tissue uptake at 1 h ([1]; brain, 1 h blocked: co-injected with 100 µg nonradioactive Ga-complexed standard, read-out: Brain uptake, blocked): 0.01 %ID/g; tissue uptake at 1 h ([1]; brain, 1 h post injection, read-out: Brain uptake): 0.03 ± 0.01 %ID/g; tissue uptake at 1 h ([1]; fat, 1 h blocked: co-injected with 100 µg nonradioactive Ga-complexed standard, read-out: Fat uptake, blocked): 0.04 ± 0.01 %ID/g; tissue uptake at 1 h ([1]; fat, 1 h post injection, read-out: Fat uptake): 0.05 ± 0.01 %ID/g; tissue uptake at 1 h ([1]; heart, 1 h blocked: co-injected with 100 µg nonradioactive Ga-complexed standard, read-out: Heart uptake, blocked): 0.1 ± 0.02 %ID/g; tissue uptake at 1 h ([1]; heart, 1 h post injection, read-out: Heart uptake): 0.19 ± 0.03 %ID/g; tissue uptake at 1 h ([1]; kidneys, 1 h blocked: co-injected with 100 µg nonradioactive Ga-complexed standard, read-out: Kidneys uptake, blocked): 1.95 ± 0.44 %ID/g; tissue uptake at 1 h ([1]; kidneys, 1 h post injection, read-out: Kidneys uptake): 2.88 ± 0.68 %ID/g; tissue uptake at 1 h ([1]; large intestine, 1 h blocked: co-injected with 100 µg nonradioactive Ga-complexed standard, read-out: Large intestine uptake, blocked): 0.19 ± 0.17 %ID/g; tissue uptake at 1 h ([1]; large intestine, 1 h post injection, read-out: Large intestine uptake): 0.34 ± 0.15 %ID/g; tissue uptake at 1 h ([1]; liver, 1 h blocked: co-injected with 100 µg nonradioactive Ga-complexed standard, read-out: Liver uptake, blocked): 0.29 ± 0.2 %ID/g; tissue uptake at 1 h ([1]; liver, 1 h post injection, read-out: Liver uptake): 0.44 ± 0.05 %ID/g; tissue uptake at 1 h ([1]; lungs, 1 h blocked: co-injected with 100 µg nonradioactive Ga-complexed standard, read-out: Lungs uptake, blocked): 0.33 ± 0.09 %ID/g; tissue uptake at 1 h ([1]; lungs, 1 h post injection, read-out: Lungs uptake): 0.55 ± 0.06 %ID/g; tissue uptake at 1 h ([1]; muscle, 1 h blocked: co-injected with 100 µg nonradioactive Ga-complexed standard, read-out: Muscle uptake, blocked): 0.06 ± 0.02 %ID/g; tissue uptake at 1 h ([1]; muscle, 1 h post injection, read-out: Muscle uptake): 0.13 ± 0.02 %ID/g; tissue uptake at 1 h ([1]; pancreas, 1 h blocked: co-injected with 100 µg nonradioactive Ga-complexed standard, read-out: Pancreas uptake, blocked): 0.1 ± 0.03 %ID/g; tissue uptake at 1 h ([1]; pancreas, 1 h post injection, read-out: Pancreas uptake): 0.53 ± 0.11 %ID/g; tissue uptake at 1 h ([1]; small intestine, 1 h blocked: co-injected with 100 µg nonradioactive Ga-complexed standard, read-out: Small intestine uptake, blocked): 0.26 ± 0.09 %ID/g; tissue uptake at 1 h ([1]; small intestine, 1 h post injection, read-out: Small intestine uptake): 0.43 ± 0.04 %ID/g; tissue uptake at 1 h ([1]; spleen, 1 h blocked: co-injected with 100 µg nonradioactive Ga-complexed standard, read-out: Spleen uptake, blocked): 0.12 ± 0.02 %ID/g; tissue uptake at 1 h ([1]; spleen, 1 h post injection, read-out: Spleen uptake): 0.25 ± 0.04 %ID/g; tissue uptake at 1 h ([1]; stomach, 1 h blocked: co-injected with 100 µg nonradioactive Ga-complexed standard, read-out: Stomach uptake, blocked): 0.04 ± 0.02 %ID/g; tissue uptake at 1 h ([1]; stomach, 1 h post injection, read-out: Stomach uptake): 0.34 ± 0.14 %ID/g; tissue uptake at 1 h ([1]; testes, 1 h blocked: co-injected with 100 µg nonradioactive Ga-complexed standard, read-out: Testes uptake, blocked): 0.13 ± 0.05 %ID/g; tissue uptake at 1 h ([1]; testes, 1 h post injection, read-out: Testes uptake): 0.17 ± 0.05 %ID/g; tissue to tissue ratio at 1 h ([1]; tumor and bone, 1 h blocked: co-injected with 100 µg nonradioactive Ga-complexed standard, read-out: Tumor/bone uptake ratio, blocked): 27.1 ± 18.1; tissue to tissue ratio at 1 h ([1]; tumor and bone, 1 h post injection, read-out: Tumor/bone uptake ratio): 43.6 ± 22.6; tissue to tissue ratio at 1 h ([1]; tumor and kidney, 1 h blocked: co-injected with 100 µg nonradioactive Ga-complexed standard, read-out: Tumor/kidney uptake ratio, blocked): 0.22 ± 0.05; tissue to tissue ratio at 1 h ([1]; tumor and kidney, 1 h post injection, read-out: Tumor/kidney uptake ratio): 1.92 ± 0.41; tissue to tissue ratio at 1 h ([1]; tumor and muscle, 1 h blocked: co-injected with 100 µg nonradioactive Ga-complexed standard, read-out: Tumor/muscle uptake ratio, blocked): 8.28 ± 2.7; tissue to tissue ratio at 1 h ([1]; tumor and muscle, 1 h post injection, read-out: Tumor/muscle uptake ratio): 44.4 ± 14.1; tissue to tissue ratio at 1 h ([1]; tumor and pancreas, 1 h blocked: co-injected with 100 µg nonradioactive Ga-complexed standard, read-out: Tumor/pancreas uptake ratio, blocked): 4.3 ± 0.83; tissue to tissue ratio at 1 h ([1]; tumor and pancreas, 1 h post injection, read-out: Tumor/pancreas uptake ratio): 10.7 ± 4.17; tissue to tissue ratio at 1 h ([1]; tumor and whole blood, 1 h blocked: co-injected with 100 µg nonradioactive Ga-complexed standard, read-out: Tumor/blood uptake ratio, blocked): 1.23 ± 0.14; tissue to tissue ratio at 1 h ([1]; tumor and whole blood, 1 h post injection, read-out: Tumor/blood uptake ratio): 9.68 ± 2.84; Reduction of average pancreas uptake by co-injection of nonradioactive standard (PC-3 tumor-bearing mice): 81%; Reduction of average uptake in PC-3 tumor xenografts by co-injection of nonradioactive standard (PC-3 tumor-bearing mice): 92%; Uptake in PC-3 tumor xenograft in PET image with blocking (PC-3 tumor xenografts; co-injection with 100 μg nonradioactive standard): close to the background level; Excretion pathway in PET images (PC-3 tumor xenografts; mice): excreted primarily through the renal pathway; Pancreas in PET images (PC-3 tumor xenografts; mice): nearly invisible; Visualization of PC-3 tumor xenografts in PET images (PC-3 tumor xenografts; ~3–6 MBq i.v., mice): clearly visualized
